Experimental findings from IntAct's records for PubMed 16888622 are described below.

First the molecules themselves.
B1: TATA-box-binding protein (Saccharomyces cerevisiae), P13393 (parent)
chain: MADEERLKEFKEANKIVFDPNTRQVWENQNRDGTKPATTFQSEEDIKRAAPESEKDTSATSGIVPTLQNIVATVTLGCRLDLKTVALHARNAEYNPKRFAAVIMRIREPKTTALIFASGKMVVTGAKSEDDSKLASRKYARIIQKIGFAAKFTDFKIQNIVGSCDVKFPIRLEGLAFSHGTFSSYEPELFPGLIYRMVKPKIVLLIFVSGKIVLTGAKQREEIYQAFEAIYPVLSEFRKM
partner: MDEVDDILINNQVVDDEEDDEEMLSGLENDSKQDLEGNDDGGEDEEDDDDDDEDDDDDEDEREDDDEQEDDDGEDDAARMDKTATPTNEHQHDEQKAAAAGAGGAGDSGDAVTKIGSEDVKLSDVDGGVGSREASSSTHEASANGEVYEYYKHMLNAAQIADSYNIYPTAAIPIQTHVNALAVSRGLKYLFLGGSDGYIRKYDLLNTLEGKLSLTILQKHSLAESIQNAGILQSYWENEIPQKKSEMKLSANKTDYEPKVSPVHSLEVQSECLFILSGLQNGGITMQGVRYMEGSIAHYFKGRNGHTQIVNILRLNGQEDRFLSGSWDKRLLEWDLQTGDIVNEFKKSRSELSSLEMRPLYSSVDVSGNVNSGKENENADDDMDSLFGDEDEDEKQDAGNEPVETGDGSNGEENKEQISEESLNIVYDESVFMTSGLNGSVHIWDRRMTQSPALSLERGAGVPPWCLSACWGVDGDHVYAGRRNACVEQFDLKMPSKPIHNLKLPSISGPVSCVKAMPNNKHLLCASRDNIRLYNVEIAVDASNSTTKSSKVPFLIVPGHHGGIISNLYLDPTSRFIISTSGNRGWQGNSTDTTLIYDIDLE

The variants in the assay derive from B1. As to conditions: with spt8_yeast SPT8, P38915.
With MADEERLKEFKEANKIVFDPNTRQVWENQNRDGTKPATTFQSEEDIKRAAPESEKDTSATSGIVPTLQNIVATVTLGCRLDLKTVALHARNAEYNPKRFAAVIMRIREPKTTALIFASGKMVVTGAKSEDDSKLASRKYARIIQKIGFAAKFTDFKIQNIVGSCDVKFPIELEGLAFSHGTFSSYEPELFPGLIYRMVKPKIVLLIFVSGKIVLTGAKQREEIYQAFEAIYPVLSEFRKM [R171E], the “effect of a mutation on the interaction” value was “disrupting interaction”.
